Test results published in the DeepSol protein solubility set.

Assay: soluble on expression in E. coli; label from the status in PepcDB or PDB records

Soluble on expression in E. coli, soluble:
MSQLTEFISCIPVVNEEQNEEDERGLCKIQIEDGAMLETLDENSLSGLRIEKMLVSEGTGIFSKSSFGINDLRIFTGENIDEESKKYVWYELLKMLTGHKVYIASLDEKVVFTKWTCRMQDDEVWKVVMELESSAIIRKIAELTLHPVKKGEIDLFEMADKLYKDICCVNDSYRNIKESDSSNRNRVEQLARERELLDKLLETRDERTRAMMVTLLNEKKKKIRELHEILRQNNIKLSDDDVLDSA
MSLDQTVSNNFKMIYIASCGEGINAFHLVESTLVQFPDSDITVVKVPHIRTESQVDHLLDRVKDVESLIAHTIVEPNLRQYLVTKAEEHKIVTIDLMGQVLNKIETFLSIRPLGKPGLYRETHQVDLKQVTAIDFALAHDDGLRPESLDEAEIILVGLSRAGKTPLSMYMGVMGWKVANIPYVPGVPMPQTLDEVDRRRVIALNINIEQLLSHRKMRQESLGTSDMHAYSRRQEVEVEVQTAQKYYITKGFSMIDVSNKPIETSAEEIAEMITRRFKAQAHLKDEGHHHHHH
GSHMAASATAAAVAAEVISVHSLEQWTMQIEEANTAKKLVVIDFTASWCGPSRIMAPVFADLAKKFPNAVFLKVDVDELKPIAEQFSVEAMPTFLFMKEGDVKDRVVGAIKEELTAKVGLHAAAQ
SAPSQAPSRDRAGQEDEDRWEARGDRKARKPLVEKKRRARINESLQELRLLLAGTEVQAKLENAEVLELTVRRVQGALRGRAREREQLQAEASERFAAGYIQCMHEVHTFVSTCQAIDATVSAELLNHLLESMPLREGSSFQDLLGDSLAGLPGGSGRSSWPPGGSPESPLSSPPGPGDDLCSDLEEIPEAELNRVPAEGPDLVSTSLGSLTAARRAQSVWRPW
MSLIEENLKQKIHDKFVAAKKNGHLKVTHAESKKLKDPQTTTQYWVTFAPSLALKPDANKNSDSKAEDPFANPDEELVVTEDLNGDGEYKLLLNKFPVVPEHSLLVTSEFKDQRSALTPSDLMTAYNVLCSLQGDKDDDVTCERYLVFYNCGPHSGSSQDHKHLQIMQMPEKFIPFQDVLCNGKDHFLPTFNAEPLQDDKVSFAHFVLPLPESSDQVDEDLLAMCYVSLMQRALTFFQDWTNESPELTKSYNVLLTKKWICVVPRSHAKSGPPLMLNINSTGYCGMILVKDREKLENLTEDPHLVDKSLLQCGFPNTAGQKPTEYHYEGHHHHHH
MSLYKVYGDYQSGNCYKVKLMLSLLGRPYEWHPVDILKGETETPEFLAMNPNGKVPVLELEDGSYLWESNAILNYLADGSEFLPSEPRLRTQVLQWQFFEQYSHEPYIAVARFIQFYLGLPDERLDEYRKLHKGGYKALKVMERQLQMTPYLVGEQYSIADVALYAYTHVAQQGGFDLADYPAVRAWLERVSSHPRHVPMVGEGHHHHHH
MKELTNEELRGIQLEQLKYIDRICRENGIEYTLAGGSLIGAIRHGGYIPWDDDIDIELTRPHYDHLISVLMDQLPNEKYALLHYKVRETYLPFAKLYDTRTSFTSKIDNLNRGTGVFLDIFPMDILPDNEEERQVFKKEFLKKAIQLTASNPHGLDFASSSKKIYFWGKLVLWMPQHIRFYGKYRILAEKLDEFMQKYRNSDNQLISYLYTGYKKAIFPKEIWEEYEDVKFEGLTARKLKNHEEYLTRQYGDYMKLPPENERVNHDYYKWYWKEKNEILEHHHHHH

Soluble on expression in E. coli, not soluble:
MGSDKIHHHHHHMKVEVNSQALADAVAWTTRVIDARPATPILAGIRLEAIDGTLQLSAFNYAISARHHIEAGVDEAGSVLVLGKLLADITKSLPAAKTYLSTDGSTMTITSGKSTFTMQLMPESEYPDLPVVPTKLGQVDSPTFAQAVNQASVAVSREENRPVLTGIRVQFQGDKVIMSSTDRFRLARSSFTWTPEDATISTTALVRGSLLRDMARSLDEHQNVTIDFDADNPSLLGFENAGRVSTSQLIDGEFPAVDRLYADEYPIHAVINKQALIDAIKRVSLVAERNAPIRMVFSGQELTLSAGTADEAQAKEILDIDMDGEDITVAFNPSYLVDGLSAISEPFVRMKMTTAVKPVEFNGQQEADSDESMDYRYLLVPMRFNN
MKYKKLLFDLIDYLDAFESLHDGGSHEPEIKDFADFLSWRCGKKKKQEEEVVSVTRERAAGAKNIARGVSLLHRYSRFYIKKALTESPLQTEDEYTYLVSLMNGESMTKTELNNLNAMEKTSGAEVMRRLLKANLIEQRPDEEDRRSMRVSITPEGRKVLVNLFPNLRLCAETLVSALSDEQLTAFDHLLWLLCECHNEMFTGKHDAELTDLHAETCGLKQSAGGALSKRLYRR
MIFKSNFTTRAGLAALALSFAAAGAPSVASAQQAGGKPPQGWFKVCTKQEDNDVCIVQNLLTANNGQLVTAVGLITVSGKVNRKVMQVSVPSARMIPPGVQMQIDGGKGVKLDYAICMPDKCVAEAPLSDALIAQLKKGNEVVFTSVNFQRAPNPIKMSLEGFTGVFDGEPIEQSQLEERQRLLQEEMQKKAEDARKKLEEAQKAAKQQ
MGSDKIHHHHHHMKRARIIYNPTSGREIFKKHLAQVLQKFEQAGYETSTHATTCAGDATHAAKEAALREFDLIIAAGGDGTINEVVNGLAPLDNRPTLGVIPVGTTNDFARALGIPREDILKAADTVINGVARPIDIGQVNGQYFINIAGGGRLTELTYDVPSKLKTMLGQLAYYLKGMEMLPSLRPTEVEIEYDGKLFQGEIMLFLVTLTNSVGGFEKLAPDSSLNDGMFDLMILKKANLAEFIRVATMALRGEHINDQHIIYTKANRVKVNVSEKMQLNLDGEYGGMLPGEFVNLYRHIHVVMPKEKAEQLDD
MTALTIKDLRYKHNQRMILQNVQLTLAPSKIVGLLGENGAGKTTLMRLITGSAKGQGSIVINGATTAVARKQQVSFTDHLTGFSAGMKLQQIAQFYQLVYPDFDAKRYQELVDFLELNQQQKLGELSKGTREKLIIALTLSRKVALYLLDEPFSGIDSMSRKKIINSIIKWTPAEATLLISDHYVTEIAPILDEIVVVKDQTIVVHQGADEIRDEHGMELEDYYESLYMGGVTDDK
MDLSSLEIFRAVAHEASVTRAAQRLQRAQSNVTTRIRQLEEDLGVELFLRDGKRMSLTERGSEFLAYAEQLLALADEARQSMHPAEPGGRLRLGSMESTAASRLPALLASYHKACPRVALEVSTGTSHALFDGVRARRLDCALVAAGPGWAGELDGSGLRGEPLFREELLMILPAEHPPVHDVAEVRLRTLAGFARGCTYRQLAEDSLGTPLTVQEVGSYHAILACVAAGACVGVLPRSVLQLLGTPPLRSLPLAEVDTWLVWREGYATAAFERWRGVLGQAGD
MSKIEQIITEIEEYIDNCKFQPLSTSKIIVNKDEIDELLAELRLRTPDEIKKYQKIIANKDAILNDAKERAEAMVSEATAHINQLVSEHEIMQKAYEEANQIIEQAQAEAQGILDSATTEANDLRTRAMQYTDDILANVQSILSTGMDSFESAQNTMMTSLNSSLNVVVESRKELGGAEDEESVENGEDDNLSVDLL
MENTVDAKKDSTIAFTGGRILTMDSEQKYAEAVVIRGDRIAAVGGTYILKSFPDAEIRDLKNRYLLPAFIDSHNHLSSFGCFFPTWANLIGLTEKEAILKAIRRQVRKEPGTGWIVGFGWFDARMGGADLTKKDLDEVSSDRPVLLIQTTFHQSVVNTRALGLLGINQSTPDPRCGIIFRESDGTPTGVLVEYAQAPVFKLVMEADTETLADLIEARAKELLQFGITAIHDPGATPAAEAAYRQLHAEGRLPVSVLMMPHGETLLDNRLRDRLQGQVTGTGDERLRVGPIKLFADGATAETVAFSLKIGGQTINSGCYRDDFEEMLFAATEKGFRVCVHSFGNATTDAVLTAFENAALRAPAGFEMRPRLEHVTLINALQIRRLASMGGCACIQPQFLSRAQNTKQVMLEDGKWYAYGDLVKGGVIVASSSDDPGGFMDARDPIKGSVMGSTMSDGEGNVIFPDQVLPFEQWLWMYTAGGAYAGGQEKERGILKKGMVADLVILEGSLDSKNPTVVAETWAAGKQVYTKELEHHHHHH
MSREQAILVGCQLAGVDDERFRYSMEELVSLVATANGEVVAEVTQKREAPHPATYIGKGKTEELAAIVKQLEPDVVIFNSELSPSQARNLTKMLGEVKVIDRT
GPGSMVRCSRPAFRQVCRAWGTRVSYTHMLMAESFVKSPHARHAEFARYEGENRLVAQLAAKSGPAAAQAALLLRPYCDGIDLNCGCPQRWAMKEGIGAALLDQPERVADMVRSIRNAMPDGSTAPMIVGNGGEYSSCTSAVPPFLPCVVKMRIKDDLRRSVDFARQCEAAGVSWLTVHGRTPTCHSSTAVQFEAVKLIRENLSVPVVLNGGVTDVSTAMEAALRTGCGGLMSANGLLDNPAMFYCGASRAAMEAEMSFVTSCWGRPPRTCDPVSPPAETAAPDVFSEVFSPVRPVSFLWAPDRSNAEAVLLRYTVADMWQAAVTPREVISDFMRAAMRTDLVVPTTVQQVLRMARLYVSPAERNHLALLRSNLSVLNALQEIDVYVESGRIACE
MKNFEIVTVTPDHAEQLISMIHELAEFEKMKSSVVNTAEKLRKDIENKAVHGFIAFIGEEPAGMNLFYYAYSTWVGQYLHMEDLYIRPQFRRMGLARTLWKKLAELARDKGIVRLEWAVLDWNKNAIALYDTVDYVNLTKSEGWFTFRMDGAAINKFADE
MGSDKIHHHHHHMLAQGQRFEGLLCGDDSSRCEVVEMAKLTQFLISGACALLITATSAIADPIAPAGKAIGQDGGGHTIYQVDANGISIGYKLIGQGAPMVMIMGLGGTADNWPPQVIEALSKNHQLILMDNRGMGHTTANDTPFSYPLFAADVIGLLDALGIKRSDVLGYSMGSTITQQLLLQYPDRFNKALIHATSTDGSNVAKALHGRVPTDPIVARQVEATTHWKTPLDKLPSIDNQVMLVVGTADNVVGTESSKTIASAIPGAWLVQFKGATHHLMYETPEGFSAAALTFFETNETVTPKIEPNASVAPPPTQP
MGSDKIHHHHHHMETPTQDMDVRWLYTQSQLKLREILPTNKTFDVIQISELVDPTDFISPNSVVLSVGIAFAETPDGLRDWAHRLADAGVIAIGFGSGLTFPQVPQALIDASLHLGLGLFEVPREIPFISITSSVRDEQTRRAGRLQQELLLEQERLNSIAISGGIEALCRAAADYLGGAVAIVDSDGRVACSITTDDLDALPQAVSRLNGSSQALTDATNFGFIHRMTRYGDRHHVLSVLMPTRPSEQHRALIRHCAGLADILLQRPEAMRDREIEVRSLAMSLLLGRSDDLATIHRVFADITDASGNIRPILITGNTPQSVRKALSSVATALYKQERALAHLRLAESTELLFLRGSRSVHNIVQLFGTAASGVRLCIGLPTRAENIDKKLIRELTATAKTLQLGTHAEPRDGTLLWLQNPELRKILKIRSRDTYDRLLDHDRTNNTELAPTLVSFTQHSGHIGDTAKELGIHRHTVRTRMIRIEEICEIDLNDPLTRAELLLVIATKEGDVEKQ
MHQRCNTRGGQDMGFDSRAAKKLKAMFKQQCRDAGAVCWLCGQPINYDAPPNSRDSFEPDHFYPQATHPELAEDPENLRPSHCSCNRSRKDGVPAPSLGSLSEQW
KGKCVIFIIDGLGDRPNEKGLTPLKEAKTPTMDKIAKEGICGLMNAIDIGIRPGSDTAHLAILGYNPYEVYTGRGPLEAFGVGLDLKEGDIAFRCNFATVDENFVVLDRRAGRISPEEAEELEKEIDGLEIDGVKVIFKSSKGYRGALVLRGEGLSCRVSDGDPHEEGVKVSEIKPLDDSEEAKRTAEILNKLLKIVYEKLNNHPINEERRKKGLPPANIILPRGAGVVPKIEKFSEKYNMKGACICGTGLIKGMAKMIGLDVIEVEGATGTPKTNFMGKAKALVEALKEYDFVLVNVKGADEASHDGNYELKKEVLEKIDEMLAYVFEHINKDEVYFVLTGDHSTPIEMKDHSADPIPIVIWGKSVRVDDVTEFNEFACAKGALHWIKGEHVMKILLDLTG
